Measurements reported in IntAct's records for PubMed 19966221.

B1: mRNA-decapping enzyme 1A (Homo sapiens), Q9NPI6 (parent)
chain: MEALSRAGQEMSLAALKQHDPYITSIADLTGQVALYTFCPKANQWEKTDIEGTLFVYRRSASPYHGFTIVNRLNMHNLVEPVNKDLEFQLHEPFLLYRNASLSIYSIWFYDKNDCHRIAKLMADVVEEETRRSQQAARDKQSPSQANGCSDHRPIDILEMLSRAKDEYERNQMGDSNISSPGLQPSTQLSNLGSTETLEEMPSGSQDKSAPSGHKHLTVEELFGTSLPKEQPAVVGLDSEEMERLPGDASQKEPNSFLPFPFEQLGGAPQSETLGVPSAAHHSVQPEITTPVLITPASITQSNEKHAPTYTIPLSPVLSPTLPAEAPTAQVPPSLPRNSTMMQAVKTTPRQRSPLLNQPVPELSHASLIANQSPFRAPLNVTNTAGTSLPSVDLLQKLRLTPQHDQIQTQPLGKGAMVASFSPAAGQLATPESFIEPPSKTAAARVAASASLSNMVLAPLQSMQQNQDPEVFVQPKVLSSAIPVAGAPLVTATTTAVSSVLLAPSVFQQTVTRSSDLERKASSPSPLTIGTPESQRKPSIILSKSQLQDTLIHLIKNDSSFLSTLHEVYLQVLTKNKDNHNL
B2: mRNA-decapping enzyme 1A (Homo sapiens), Q9NPI6 (parent)
chain: B1 chain
partner: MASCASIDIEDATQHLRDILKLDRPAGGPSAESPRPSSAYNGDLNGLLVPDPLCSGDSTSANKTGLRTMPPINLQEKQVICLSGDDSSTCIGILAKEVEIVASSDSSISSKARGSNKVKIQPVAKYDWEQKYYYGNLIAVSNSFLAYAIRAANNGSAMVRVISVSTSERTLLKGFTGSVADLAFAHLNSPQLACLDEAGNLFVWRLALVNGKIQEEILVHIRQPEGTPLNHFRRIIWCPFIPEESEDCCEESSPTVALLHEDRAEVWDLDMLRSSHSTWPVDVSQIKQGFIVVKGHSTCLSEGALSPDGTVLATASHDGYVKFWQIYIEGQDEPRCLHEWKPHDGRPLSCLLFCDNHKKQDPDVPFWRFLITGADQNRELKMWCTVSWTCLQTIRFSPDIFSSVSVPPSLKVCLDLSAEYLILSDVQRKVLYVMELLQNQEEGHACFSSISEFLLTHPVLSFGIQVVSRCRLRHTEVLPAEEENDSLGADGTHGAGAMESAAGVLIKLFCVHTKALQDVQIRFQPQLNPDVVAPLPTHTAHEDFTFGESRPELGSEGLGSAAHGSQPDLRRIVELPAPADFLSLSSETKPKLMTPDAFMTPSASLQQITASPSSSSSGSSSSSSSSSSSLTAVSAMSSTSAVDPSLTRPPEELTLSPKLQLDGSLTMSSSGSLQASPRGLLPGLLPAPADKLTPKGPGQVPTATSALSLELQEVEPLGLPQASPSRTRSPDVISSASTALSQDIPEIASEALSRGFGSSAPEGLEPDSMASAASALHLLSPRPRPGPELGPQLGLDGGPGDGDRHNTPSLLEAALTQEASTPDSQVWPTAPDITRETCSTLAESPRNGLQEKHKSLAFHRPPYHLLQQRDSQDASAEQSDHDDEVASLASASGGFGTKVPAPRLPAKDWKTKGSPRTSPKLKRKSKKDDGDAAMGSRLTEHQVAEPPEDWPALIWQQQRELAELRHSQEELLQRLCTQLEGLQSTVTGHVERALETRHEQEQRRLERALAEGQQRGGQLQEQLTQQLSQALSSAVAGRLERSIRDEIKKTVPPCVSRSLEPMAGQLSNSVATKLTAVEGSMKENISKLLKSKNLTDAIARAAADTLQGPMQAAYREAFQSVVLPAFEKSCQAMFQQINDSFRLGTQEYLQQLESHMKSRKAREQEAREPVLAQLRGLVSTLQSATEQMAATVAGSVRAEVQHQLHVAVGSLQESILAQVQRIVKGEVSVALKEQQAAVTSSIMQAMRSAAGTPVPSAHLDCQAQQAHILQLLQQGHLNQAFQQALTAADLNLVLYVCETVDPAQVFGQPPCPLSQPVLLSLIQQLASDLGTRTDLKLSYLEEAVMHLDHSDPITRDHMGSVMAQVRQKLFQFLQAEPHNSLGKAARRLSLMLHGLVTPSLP

Variants of: B1
Details: with dcp2_human DCP2, Q8IU60

| Variant | effect of a mutation on the interaction |
| --- | --- |
| I552S;I555R;L562E | disrupting interaction |
| L551R;I555S;F561R;L565S | disrupting interaction |
| L554S;F561R;L565S | disrupting interaction |

Variants of: B2
Details: with edc4_human EDC4, Q6P2E9

| Variant | effect of a mutation on the interaction |
| --- | --- |
| L554S;F561R;L565S | disrupting interaction |
| L551R;I555S;F561R;L565S | disrupting interaction |
| I552S;I555R;L562E | disrupting interaction |
